Where no end group is shown, it is not given here. [ ]: non-standard residue; d: D form. pY = N[C@@H](Cc1ccc(OP(=O)(O)O)cc1)C(=O)O

What all share (details): both partners purified
Experiment [1] concerns the target T1, SOCS2-ElonginB-ElonginC complex, wild-type (human | , UniProt O14508 32-198; Q15370 1-104; Q15369 17-112). Briefly: SPR; biotinylated SBC (wild-type or mutant) immobilised, peptide injected at 0.08-60 μM; 20 mM HEPES pH 7.5, 150 mM NaCl, 1 mM TCEP, 0.005% Tween20, 10 °C; steady-state affinity, 1:1 model. Background: SPR reads the build-up and loss of mass on a sensor chip optically.
T1 sequence (O14508 32-198, chain 1 of 3): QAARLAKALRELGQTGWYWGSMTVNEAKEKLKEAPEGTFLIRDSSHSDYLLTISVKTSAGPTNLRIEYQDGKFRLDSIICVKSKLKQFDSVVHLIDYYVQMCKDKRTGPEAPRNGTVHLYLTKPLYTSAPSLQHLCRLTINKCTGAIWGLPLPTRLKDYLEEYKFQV
T1 sequence (Q15370 1-104, chain 2 of 3): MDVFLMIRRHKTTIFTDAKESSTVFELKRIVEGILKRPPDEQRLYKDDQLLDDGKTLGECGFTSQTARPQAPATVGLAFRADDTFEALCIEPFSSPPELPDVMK
T1 sequence (Q15369 17-112, chain 3 of 3): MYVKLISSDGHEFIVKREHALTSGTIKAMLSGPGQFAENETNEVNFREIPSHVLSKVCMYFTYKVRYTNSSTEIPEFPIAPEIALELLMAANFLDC

The target in experiment [2] is T1, SOCS2-ElonginB-ElonginC complex, …. Briefly: 19F ligand-observed CPMG NMR displacement assay; peptide (GHR 10 μM, EpoR 50 μM) displaces the fluorinated pY analog spy molecule 3 (100 μM) from SBC (5 μM); 20 mM HEPES pH 8, 50 mM NaCl, 1 mM DTT, 20% D2O, 298 K.
Experiment [3] has as its target T2, SOCS2(L106V)-ElonginB-ElonginC complex (human | , UniProt O14508 32-198; Q15370 1-104; Q15369 17-112, L106V).
T2 construct: also called SBC L106V; source: E. coli BL21(DE3), co-expressed, purified (as wild-type SBC); not shown: His6, N-terminal, cleaved; copies: + +
Briefly: SPR; biotinylated SBC (wild-type or mutant) immobilised, peptide injected at 0.08-60 μM; 20 mM HEPES pH 7.5, 150 mM NaCl, 1 mM TCEP, 0.005% Tween20, 10 °C; steady-state affinity, 1:1 model.

The target in experiment [4] is T3, SOCS2(C133Y)-ElonginB-ElonginC complex (human | , UniProt O14508 32-198; Q15370 1-104; Q15369 17-112, C133Y).
T3 construct: also called SBC C133Y; source: E. coli BL21(DE3), co-expressed, purified (as wild-type SBC); not shown: His6, N-terminal, cleaved; copies: + +
T3 sequence (O14508 32-198 C133Y, chain 1 of 3): as the sequence (O14508 32-198, chain 1 of 3) above, with C102Y counted along it
T3 sequence (Q15370 1-104, chain 2 of 3): as the sequence (Q15370 1-104, chain 2 of 3) above
T3 sequence (Q15369 17-112, chain 3 of 3): as the sequence (Q15369 17-112, chain 3 of 3) above
The description is as above.

In experiment [5] the target is T4, SOCS2-ElonginB-ElonginC complex, wild-type (human | , UniProt O14508 32-198; Q15370 1-104; Q15369 17-112).
T4 construct: Untagged in ITC and NMR; also called SBC; wild-type SBC; source: E. coli BL21(DE3), co-expressed, purified (HisTrap, TEV cleavage, second HisTrap, SEC Superdex 75); not shown: His6, N-terminal, cleaved; copies: + +
The description is as above.
T4 sequence (O14508 32-198, chain 1 of 3): as the sequence (O14508 32-198, chain 1 of 3) above
T4 sequence (Q15370 1-104, chain 2 of 3): as the sequence (Q15370 1-104, chain 2 of 3) above
T4 sequence (Q15369 17-112, chain 3 of 3): as the sequence (Q15369 17-112, chain 3 of 3) above

The target of experiment [6] is T4, SOCS2-ElonginB-ElonginC complex, …. Briefly: ITC; peptide (750 or 1500 μM) titrated into SBC (50 μM); 100 mM HEPES pH 7.5, 50 mM NaCl, 0.5 mM TCEP, 298 K; one-set-of-site model.

T2 sequence (O14508 32-198 L106V, chain 1 of 3): as the sequence (O14508 32-198, chain 1 of 3) above, with L75V counted along it
T2 sequence (Q15370 1-104, chain 2 of 3): as the sequence (Q15370 1-104, chain 2 of 3) above
T2 sequence (Q15369 17-112, chain 3 of 3): as the sequence (Q15369 17-112, chain 3 of 3) above

Regarding PYPD[pY]TSIHIV-NH2 [GHR_pY595 peptide V(−3)Y], the Kd in experiment [1] came to 3.3 µM. In experiment [2], the Ki came out at 3.3 µM.
For ASFA[pY]TILDPS-NH2 [EpoR_pY426 peptide, alanine at pY(−1)], the Kd in experiment [1] was 21.7 µM. The same molecule had a Ki in experiment [2] of 23.5 µM.
PVPD[pY]ASIHIV-NH2 [GHR_pY595 peptide, alanine at pY(+1)] returned a Kd in experiment [1] of 1 µM. Moreover, in experiment [2], the affinity, expressed as Ki, was 0.5 µM.
The molecule PVPD[pY]TSIHIA-NH2 [GHR_pY595 peptide, alanine at pY(+6)] had a Kd in experiment [1] of 1.9 µM.
Take ASFE[pY]TIADPS-NH2 [EpoR_pY426 peptide, alanine at pY(+3)]: in experiment [1], binding was characterised by a dissociation constant (Kd) of 32.3 µM. The molecule further gave a Ki in experiment [2] of 20.4 µM.
PVPD[pY]TSAHIV-NH2 [GHR_pY595 peptide, alanine at pY(+3)] gave a Kd in experiment [1] of 3.7 µM. In addition, the affinity in experiment [2], expressed as Ki, was 3.4 µM.

B1: GHR_pY487 phosphopeptide (growth hormone receptor) (peptide)
peptide: NIDF[pY]AQVSDI-NH2
notes: growth hormone receptor (GHR), 11-residue peptide around pY487; source: synthetic peptide (solid-phase, Fmoc, Rink amide resin), HPLC purified
In the case of B1, the Kd was determined as 8.9 µM in experiment [3], 7.7 µM in experiment [4], 5.1 µM in experiment [5] and 2.3 µM in experiment [6].
PAPD[pY]TSIHIV-NH2 [GHR_pY595 peptide, alanine at pY(−3)] had a Ki in experiment [2] of 3.4 µM.

B2: EpoR_pY426 peptide, alanine at pY(+1) (peptide)
chain: ASFE[pY]AILDPS-NH2
modifications: N-terminus assumed
SMILES: CC[C@H](C)[C@H](NC(=O)[C@H](C)NC(=O)[C@H](Cc1ccc(OP(=O)(O)O)cc1)NC(=O)[C@H](CCC(=O)O)NC(=O)[C@H](Cc1ccccc1)NC(=O)[C@H](CO)NC(=O)[C@H](C)N)C(=O)N[C@@H](CC(C)C)C(=O)N[C@@H](CC(=O)O)C(=O)N1CCC[C@H]1C(=O)N[C@@H](CO)C(N)=O
As for B2, in experiment [1], the Kd was determined as 17.1 µM. Besides, in experiment [2], the Ki worked out at 10.3 µM.
In the same order, the values of PVPD[pY]TSIAIV-NH2 [GHR_pY595 peptide, alanine at pY(+4)] are 6.7 µM and 18.5 µM.
In the same order, the values of ASFE[pY]TILDAS-NH2 [EpoR_pY426 peptide, alanine at pY(+5)] are 8.9 µM and 6.9 µM.

B3: EpoR_pY426 peptide, alanine at pY(+6) (peptide)
chain: ASFE[pY]TILDPA-NH2
modifications: N-terminus assumed
SMILES: CC[C@H](C)[C@H](NC(=O)[C@@H](NC(=O)[C@H](Cc1ccc(OP(=O)(O)O)cc1)NC(=O)[C@H](CCC(=O)O)NC(=O)[C@H](Cc1ccccc1)NC(=O)[C@H](CO)NC(=O)[C@H](C)N)[C@@H](C)O)C(=O)N[C@@H](CC(C)C)C(=O)N[C@@H](CC(=O)O)C(=O)N1CCC[C@H]1C(=O)N[C@@H](C)C(N)=O
The molecule B3 had a Kd in experiment [1] of 16.4 µM. Affinity in experiment [2] was put at a Ki of 11.3 µM.
In experiment [1], ASFE[pY]TALDPS-NH2 [EpoR_pY426 peptide, alanine at pY(+2)] yielded a Kd of 30.8 µM. Besides, in experiment [2], the affinity corresponds to a Ki of 17.2 µM.
In the same order, the values of PRPD[pY]TSIHIV-NH2 [GHR_pY595 peptide V(−3)R] are 9 µM and 20.6 µM.
In the case of ASFE[pY]TILAPS-NH2 [EpoR_pY426 peptide, alanine at pY(+4)], the affinity in experiment [1], expressed as Kd, was 18 µM. This molecule also came in with a Ki in experiment [2] of 14.1 µM.

A word on the Kd: it is a measure of binding affinity in units of concentration. Lower therefore signals a tighter complex. Usually Ki stands for a dissociation constant, usually derived from enzyme kinetics or from competition with a known ligand.
